Reference: paper PMC3156124

What was measured:
GEP100 = GEP100 (UniProt Q6DN90); assay: anti-HA (GEP100) IP, anti-V5 (VEGFR2) blot; conditions: reference: wild type VEGFR2-V5; sites Y951
GEP100 PH domain = GEP100 PH domain (UniProt Q6DN90); assay: peptide dot-blot overlaid with GST-PH; conditions: reference: non-phosphorylated Tyr951 peptide; sites Y951

binding against the reference (GEP100) | binding against the reference (GEP100 PH domain) | Substance
lost |  | VEGFR2 (from UniProt P35968) 951F
 | gained | VEGFR2 Tyr951 peptide (from UniProt P35968) pY951 peptide
